Test [1] has as its target Rabbit skeletal actin (rabbit) (UniProt P68135). The experiment in a line: TIRF microscopy; 50 nM phosphorylated NM2 filaments added to anti-parallel actin arrays anchored by their barbed ends on patterned formin; MB150 (150 mM KCl, 5 mM MgCl2, 0.1 mM EGTA, 20 mM MOPS, pH 7.4), 1 mM ATP, 1 mM DTT, 0.6% methylcellulose, 30 °C.
Test [2] has the same target.

Two substances from paper PMC12802541 can be followed below.

A value given as a limit tells only on which side of the number the result lay.

With “Non-muscle myosin 2B, Halo-tagged, phosphorylated, pre-polymerized filaments (from UniProt P35580 1-1976; P60660 1-151; O14950 1-172) (complex)”, in test [1], the dwell time (lifetime of attachment) was above 15 min.
In test [2], “TsMod NM2A (non-muscle myosin 2A with an embedded FRET-based tension sensor module), RLC phosphorylated (from UniProt P35579 1-1960; P60660 1-151; O14950 1-172) (complex)” displayed a fraction of tension sensor modules that are tensed (amplitude of the long lifetime component, global fit of FLIM) on patterned actin bundles of 80%.
